Numbering of substitutions follows the chain as printed. One block for each binder: values may come before it.
Target: human NRP1 protein (human, UniProt O14786 22-856)
Assay: ELISA

Kd: 1110 nM
B1: 1A03 anti-NRP1 IgG antibody (antibody, V domains shown)
VH: EVQLLESGGGLVQFGGSLRLSQAASGFTFSSYYMSWVRQAFGKGLEWVSAISFGSSNKYYADSVQGRFTISRDNSKNTLYLQMNELRAEDTAVYYCARRKKSFDYWGQGTLVTVSS
VL: QSVLTQFFSASGTPGQRVTISCSGFSSNIGNNDVSWYQQLFGTAPKLLIYSCNNRPSGVPDRFSGSKSGTSASLAISGLRSSDEADYYCGAWVASLSAYVFGGGTKLTVTL

Kd: 426 nM
B2: IRCR-101 (3H10 converted into IgG format) (antibody, V domains shown)
VH: B1 VH with G15Q, G16Q, G26Q, F53P, Q65K, K101Y, S102M
VL: GSVLTQPPSASGTPGQRVTISCTGESSNIGNNDVYWYQQLPGTAFKLLIYSQSNRPSGMPDRFSGSKSGTSASLAISGLRSEDEADYYCASWDSSLSGYVFGGGTKLTVTL

Reference: patent US20200011878A1 (published 2020)
